Assay results as given in patent publication US20050100965A1.

Molecular target: recombinant IL18 (YK27-1) (Homo sapiens (Human)) (UniProt Q14116)
Assay: cell-based or functional assay

IFN (interferon γ) transcript level, quantitative PCR, whole blood stimulated with IL18+IL12, donor1n (Unstimulated 0.002, Stimulated 0.339): 0.07
IFN (interferon γ) transcript level, quantitative PCR, whole blood stimulated with IL18+IL12, donor 3n (Unstimulated 0.001, Stimulated 0.187): 0.026
IFN (interferon γ) transcript level, quantitative PCR, whole blood stimulated with IL18+IL12, donor4n (Unstimulated 0.001, Stimulated 0.082): 0.027
IFN (interferon γ) transcript level, quantitative PCR, whole blood stimulated with IL18+IL12, donor 5n (Unstimulated 0.003, Stimulated 0.012): 0.006
IFN (interferon γ) transcript level, quantitative PCR, whole blood stimulated with IL18+IL12, donor6n (Unstimulated 0.002, Stimulated 0.076): 0.01
IFN (interferon γ) transcript level, quantitative PCR, whole blood stimulated with IL18+IL12, donor7n (Unstimulated 0.002, Stimulated 0.049): 0.012
IFN (interferon γ) transcript level, quantitative PCR, whole blood stimulated with IL18+IL12, donor8n (Unstimulated 0.002, Stimulated 0.049): 0.012
IFN (interferon γ) transcript level, quantitative PCR, whole blood stimulated with IL18+IL12, donor 9n (Unstimulated 0.001, Stimulated 1.250): 0
IFN (interferon γ) transcript level, quantitative PCR, whole blood stimulated with IL18+IL12, donor10n (Unstimulated 0.002, Stimulated 0.361): 0.002
B1: Murine anti-human IL-18 mAb (125-2H) (antibody, from another filing, V domains shown)
VH: EIQLQQSGPELVKPGASVKVSCKASGYSFTDYFIYWVKQSHGKSLEWIGDIDPYNGDTSYNQKFRDKATLTVDQSSTTAFMHLNSLTSEDSAVYFCARGLRFWGQGTLVTVSA
VL: DIQMTQSPSSLSASLGERVSLTCRASQDIGSKLYWLQQEPDGTFKRLIYATSSLDSGVPKRFSGSRSGSDYSLTISSLESEDFVDYYCLQYASSPYTFGGGTKLAIKR
